Source: patent US20190345534
Where two headings read alike, the source gives them in different places.

What was measured:
[1] = tested on: GzmB peptide substrate AIEFDSGc on PEG-coated iron oxide nanoparticles (GzmB-sensing synthetic biomarker)
[2] = molecular target: T1, GzmB peptide substrate AIEFDSGc on PEG-coated iron oxide nanoparticles (GzmB-sensing synthetic biomarker)
T1 chain: AIEFDSGC

B1: Cls (Sigma) (enzyme, UniProt P09871 16-688, looked up, species assumed)
Complement C1s subcomponent: EPTMYGEILSPNYPQAYPSEVEKSWDIEVPEGYGIHLYFTHLDIELSENCAYDSVQIISGDTEEGRLCGQRSSNNPHSPIVEEFQVPYNKLQVIFKSDFSNEERFTGFAAYYVATDINECTDFVDVPCSHFCNNFIGGYFCSCPPEYFLHDDMKNCGVNCSGDVFTALIGEIASPNYPKPYPENSRCEYQIRLEKGFQVVVTLRREDFDVEAADSAGNCLDSLVFVAGDRQFGPYCGHGFPGPLNIETKSNALDIIFQTDLTGQKKGWKLRYHGDPMPCPKEDTPNSVWEPAKAKYVFRDVVQITCLDGFEVVEGRVGATSFYSTCQSNGKWSNSKLKCQPVDCGIPESIENGKVEDPESTLFGSVIRYTCEEPYYYMENGGGGEYHCAGNGSWVNEVLGPELPKCVPVCGVPREPFEEKQRIIGGSDADIKNFPWQVFFDNPWAGGALINEYWVLTAAHVVEGNREPTMYVGSTSVQTSRLAKSKMLTPEHVFIHPGWKLLEVPEGRTNFDNDIALVRLKDPVKMGPTVSPICLPGTSSDYNLMDGDLGLISGWGRTEKRDRAVRLKAARLPVAPLRKCKEVKVEKPTADAEAYVFTPNMICAGGEKGMDSCKGDSGGAFAVQDPNDKTKFYAAGLVSWGPQCGTYGLYTRVKNYVDWIMKTMQENSTPRED
[1]
  fluorescent intensity (in vitro protease cleavage assay): Increases in fluorescent intensity were observed only in samples containing recombinant GzmB

B2: murine Granzyme B (recombinant, Peprotech) (protein)
chain: IIGGHEVKPHSRPYMALLSIKDQQPEAICGFLIREDFVLTAAHCEGSIINVTLGAHNIKEQEKTQQVIPMVKCIPHPDYNPKTFSNDIMLLKLKSKAKRTRAVRPLNLPRRNVNVKPGDVCYVAGWGRMAPMGKYSNTLQEVELTVQKDRECESYFKNRYNKTNQICAGDPKTKRASFRGDSGGPLVCKKVAAGIVSYGYKDGSPPRAFTKVSSFLSWIKKTMKSS
[2]
  fluorescent intensity (in vitro protease cleavage assay): Increases in fluorescent intensity were observed only in samples containing recombinant GzmB
  kcat/KM: Fitted kcat/KM was 1.09×10^4 M^-1s^-1
  rate of cleavage (initial cleavage velocity, fluorescence): the substrate that produced the highest rate of cleavage by recombinant GzmB

B3: mouse plasmin (HaemTech) (protein)
chain: VYLSECKTGIGNGYRGTMSRTKSGVACQKWGATFPHVPNYSPSTHPNEGLEENYCRNPDNDEQGPWCYTTDPDKRYDYCNIPECEEECMYCSGEKYEGKISKTMSGLDCQAWDSQSPHAHGYIPAKFPSKNLKMNYCRNPDGEPRPWCFTTDPTKRWEYCDIPRCTTPPPPPSPTYQCLKGRGENYRGTVSVTVSGKTCQRWSEQTPHRHNRTPENFPCKNLEENYCRNPDGETAPWCYTTDSQLRWEYCEIPSCESSASPDQSDSSVPPEEQTPVVQECYQSDGQSYRGTSSTTITGKKCQSWAAMFPHRHSKTPENFPDAGLEMNYCRNPDGDKGPWCYTTDPSVRWEYCNLKRCSETGGSVVELPTVSQEPSGPSDSETDCMYGNGKDYRGKTAVTAAGTPCQGWAAQEPHRHSIFTPQTNPRAGLEKNYCRNPDGDVNGPWCYTTNPRKLYDYCDIPLCASASSFECGKPQVEPKKCPGRVVGGCVANPHSWPWQISLRTRFTGQHFCGGTLIAPEWVLTAAHCLEKSSRPEFYKVILGAHEEYIRGLDVQEISVAKLILEPNNRDIALLKLSRPATITDKVIPACLPSPNYMVADRTICYITGWGETQGTFGAGRLKEAQLPVIENKVCNRVEYLNNRVKSTELCAGQLAGGVDSCQGDSGGPLVCFEKDKYILQGVTSWGLGCARPNKPGVYVRVSRFVDWIEREMRNN
[2]
  fluorescent intensity (in vitro protease cleavage assay): Increases in fluorescent intensity were observed only in samples containing recombinant GzmB

B4: Clr (Sigma) (enzyme, UniProt P00736 18-705, looked up, species assumed)
Complement C1r subcomponent: SIPIPQKLFGEVTSPLFPKPYPNNFETTTVITVPTGYRVKLVFQQFDLEPSEGCFYDYVKISADKKSLGRFCGQLGSPLGNPPGKKEFMSQGNKMLLTFHTDFSNEENGTIMFYKGFLAYYQAVDLDECASRSKSGEEDPQPQCQHLCHNYVGGYFCSCRPGYELQEDTHSCQAECSSELYTEASGYISSLEYPRSYPPDLRCNYSIRVERGLTLHLKFLEPFDIDDHQQVHCPYDQLQIYANGKNIGEFCGKQRPPDLDTSSNAVDLLFFTDESGDSRGWKLRYTTEIIKCPQPKTLDEFTIIQNLQPQYQFRDYFIATCKQGYQLIEGNQVLHSFTAVCQDDGTWHRAMPRCKIKDCGQPRNLPNGDFRYTTTMGVNTYKARIQYYCHEPYYKMQTRAGSRESEQGVYTCTAQGIWKNEQKGEKIPRCLPVCGKPVNPVEQRQRIIGGQKAKMGNFPWQVFTNIHGRGGGALLGDRWILTAAHTLYPKEHEAQSNASLDVFLGHTNVEELMKLGNHPIRRVSVHPDYRQDESYNFEGDIALLELENSVTLGPNLLPICLPDNDTFYDLGLMGYVSGFGVMEEKIAHDLRFVRLPVANPQACENWLRGKNRMDVFSQNMFCAGHPSLKQDACQGDSGGVFAVRDPNTDRWVATGIVSWGIGCSRGYGFYTKVLNYVDWIKKEMEEED
[1]
  fluorescent intensity (in vitro protease cleavage assay): Increases in fluorescent intensity were observed only in samples containing recombinant GzmB
